Data as given in article PMC2635752.

How the values were obtained:
[1] = molecular target: growth-associated protein GAP-43 (mouse (endogenous in N1E-115)) (UniProt P06837); experiment: cross-linking + co-IP; cells lysed in 1% NP-40 substitute buffer first; 1 mM DSP added to the low-speed supernatant (15 min, room temperature); glycine and SDS added; 100,000 × g supernatant; monoclonal anti-GAP-43; two-dimensional gel; spots counted, calmodulin cpm divided by 9/4
[2] = molecular target: growth-associated protein GAP-43 (mouse (endogenous in N1E-115)) (UniProt P06837); experiment: cross-linking + co-IP; 1 mM DSP added to living [35S]-labeled differentiated N1E-115 cells (15 min, room temperature, KRH); lysis in SDS, then NP-40 lysis buffer; 100,000 × g supernatant; monoclonal anti-GAP-43 (clone 91E12) and protein G plus agarose; crosslinks cleaved; two-dimensional gel, fluorography; spots cut out and counted, calmodulin cpm divided by 9/4

UniProt P06837, sequence (P06837 whole entry): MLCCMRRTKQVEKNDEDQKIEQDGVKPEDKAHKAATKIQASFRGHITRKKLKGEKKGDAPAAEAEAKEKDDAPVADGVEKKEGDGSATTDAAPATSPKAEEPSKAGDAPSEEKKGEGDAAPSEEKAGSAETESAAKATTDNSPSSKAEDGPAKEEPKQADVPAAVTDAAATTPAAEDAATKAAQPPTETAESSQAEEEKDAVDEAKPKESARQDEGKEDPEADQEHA

- calmodulin as percent of the GAP-43 in the immunoprecipitate [1]: 39%
- radioactivity of calmodulin in the anti-GAP-43 immunoprecipitate (divided by 9/4) [1]: 643 cpm
- calmodulin as percent of the GAP-43 in the immunoprecipitate [2]: 14%
- percent of the total GAP-43 crosslinked to calmodulin [2]: 25%
- radioactivity of calmodulin in the anti-GAP-43 immunoprecipitate (divided by 9/4) [2]: 278 cpm
Substance: calmodulin (from UniProt P0DP26 1-149) (natural protein)
